For 1 protein, Km and kcat results are on record in paper PMC5432616, “Oligomeric State and Thermal Stability of Apo- and Holo- Human Ornithine δ-Aminotransferase” (The Protein Journal, 2017).

Broadly, the Km is the concentration of substrate that gives half-maximal velocity. The kcat is the maximal rate divided by the concentration of active sites.

Substrate in series [1]: O=C(O)CCC(=O)C(=O)O
In words: purified protein. In kind it is biochemical, Homo sapiens. To be noted: co-substrate L-Orn, 60 nM enzyme, 50 mM Hepes, pH 8.0, 150 mM NaCl, 100 μM PLP, 25 °C.

Substrate in series [2]: NCCC[C@H](N)C(=O)O
In words: purified protein. The note with it: co-substrate α-KG, 60 nM enzyme, 50 mM Hepes, pH 8.0, 150 mM NaCl, 100 μM PLP, 25 °C.

B1: hOAT (human ornithine δ-aminotransferase) (Homo sapiens; R217A) (protein)
chain: TSVATKKTVQGPPTSDDIFEREYKYGAHNYHPLPVALERGKGIYLWDVEGRKYFDFLSSYSAVNQGHCHPKIVNALKSQVDKLTLTSRAFYNNVLGEYEEYITKLFNYHKVLPMNTGVEAGETACKLARKWGYTVKGIQKYKAKIVFAAGNFWGRTLSAISSSTDPTSYDGFGPFMPGFDIIPYNDLPALEAALQDPNVAAFMVEPIQGEAGVVVPDPGYLMGVRELCTRHQVLFIADEIQTGLARTGRWLAVDYENVRPDIVLLGKALSGGLYPVSAVLCDDDIMLTIKPGEHGSTYGGNPLGCRVAIAALEVLEEENLAENADKLGIILRNELMKLPSDVVTAVRGKGLLNAIVIKETKDWDAWKVCLRLRDNGLLAKPTHGDIIRFAPPLVIKEDELRESIEIINKTILSF
notes: untagged, pET43a, E. coli BL21(DE3)pLysS; DEAE and Superdex 200; tetramer in equilibrium with dimer, dimer is the functional unit
Consider B1, for which, in “purified protein [1]”, the Km turned out to be 2.4 ± 0.1 mM and the kcat is 38.1 ± 0.3 s⁻¹. In addition, in the series “purified protein [2]”, the Km was found to be 5.1 ± 0.3 mM and the kcat is 38.4 ± 0.7 s⁻¹.
